US20230080534A1, “SEMG2 ANTIBODY AND USE THEREOF” (SHANGHAI BIOTROY BIOTECHNIQUE CO., LTD., priority 2020, published 2023)

T1: binding between SEMG2 and CD27 (Homo sapiens, UniProt Q02383)
T1 sequence (Q02383 24-582): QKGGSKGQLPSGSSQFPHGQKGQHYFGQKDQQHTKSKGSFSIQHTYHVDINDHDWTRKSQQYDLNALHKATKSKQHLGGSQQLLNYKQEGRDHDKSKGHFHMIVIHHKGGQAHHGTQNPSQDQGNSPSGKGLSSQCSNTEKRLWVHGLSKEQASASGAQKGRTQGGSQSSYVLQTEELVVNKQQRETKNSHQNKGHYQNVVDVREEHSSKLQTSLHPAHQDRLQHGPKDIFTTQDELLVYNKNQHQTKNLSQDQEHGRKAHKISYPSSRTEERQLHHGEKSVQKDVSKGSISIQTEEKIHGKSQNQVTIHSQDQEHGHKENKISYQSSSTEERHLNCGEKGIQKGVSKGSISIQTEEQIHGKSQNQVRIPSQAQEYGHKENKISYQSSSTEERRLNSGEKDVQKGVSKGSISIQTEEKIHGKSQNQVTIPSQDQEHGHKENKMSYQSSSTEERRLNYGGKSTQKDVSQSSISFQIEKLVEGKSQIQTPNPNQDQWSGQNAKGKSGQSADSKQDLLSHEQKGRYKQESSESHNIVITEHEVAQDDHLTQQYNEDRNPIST


Key:
[1] = target: T1, binding between SEMG2 and CD27; assay: Antibody blocking ELISA of SEMG2 binding to CD27-Fc; settings: for effect on the binding between SEMG2 and CD27: antibody 10 μg/mL; for blocking of binding between SEMG2 and CD27 with increasing antibody concentration: wide range of concentration
Description: Because SEMG2 (497-509) sequence fragment is the key epitope of SEMG2 binding to CD27, and has a relatively short sequence, so SEMG2 (497-509) was used as an immunogen to prepare antibodies, which is theoretically easier to obtain functional antibody molecules with the function of blocking the binding between SEMG2 and CD27 than using full-length SEMG2 to prepare antibodies. For direct comparison, the differences in effective concentration of producing antibody by the two methods were verified using ELISA in the examples. Antibodies produced with SEMG2 (497-509) as immunogen and antibodies produced with full-length SEMG2 were added into the enzyme-linked immunosorbent assay (ELISA) reaction system at different concentrations (10^-2, 10^-1, 10^0, 10^1, 10^2, 10^3, 10^4 μg/mL), and the ELISA binding values were measured. The specific steps of enzyme-linked immunosorbent assay are as follows: (1) Dissolve SEMG2 protein antigen with 50 mM carbonate coating buffer (pH 9.6) to make the antigen concentration 10 μg/mL, and add into 96-well ELISA plate (purchased from Corning) at 100 μL/well, place at 4° C. overnight. (2) After discarding the coating solution on the next day, wash with PBST for three times, add 150 μL of 1% BSA to each well, and block for 2 hours at 37° C. […] (4) After washing for 5 times with PBST, add 100 of diluted HRP-labeled anti-human Fe secondary antibody, and incubate at 37° C. for 1 hour. (5) After washing with PBST for 5 times, 20 min after developing with chromogenic agent, the A450 absorption value was read using the microplate reader.
The SEMG2 (497-509) sequence was used to synthesize a polypeptide and coupled to a VLP carrier for immunization; HEK293 cells were used to express the full-length SEMG2 protein, and the purity was tested to reach 92%, and the binding activity of SEMG2 protein to CD27 was verified by ELISA. The protein and polypeptide antigens were used to immunize 10 mice respectively, and multiple immunizations were performed to enhance the effect: (1) The first immunization, 50 μg/mice of antigen, multiple subcutaneous injections together with Freund's complete adjuvant, with an interval of 3 weeks; (2) the second immunization; the same dosage and route as above, with incomplete Freund's adjuvant, and with an interval of 3 weeks; (3) the third immunization, the same dosage as above, without adjuvant, intraperitoneal injection with an interval of 3 weeks; (4) the booster immunization, the dose is 50 μg, intraperitoneal injection. 3 days after the last injection, blood was collected to measure its titer and the immune effect, and mice with higher titers were selected for hybridoma fusion screening. After subcloning, the binding of the monoclonal antibodies to the target antigens was detected by ELISA, and the function of different monoclonal antibodies in blocking the binding between SEMG2 and CD27 was measured by ELISA.
First, SEMG2(497-509) epitope-specific antibodies (for example, MM02, MM05) were compared with other epitope-specific antibodies (for example, HPA042767) for their function in blocking binding between SEMG2 and CD27 at different concentration ranges. […] The blocking function of different antibodies (irrelative mouse IgG, MM02, MM05, HPA042767) on binding between SEMG2 and CD27 was analyzed by the ELISA experiment as described in Example 11.
Further, the effects of different antibodies on the binding between SEMG2 and CD27 were compared under the condition of the same antibody concentration. In the ELISA, the same concentration (10 μg/mL) of antibody was used, and the strength of the binding between SEMG2 and CD27 was measured. […]

[2] = test system: human malignant melanoma A375 cells; assay: Xenograft model of PBMC-HIS model in human malignant melanoma A375 cells; type: in vivo, mouse; settings: NPSG mice with PBMC and A375, 5 mg/kg intraperitoneally three times a week
Procedure: 30 male NPSG mouse models aged 6-8 week were weighed. A375 cells (with confirmed endogenous expression of SEMG2) were cultured in vitro to obtain 1.8×10^8 cells. After 30 mice were inoculated with PBMC, A375 tumor cells were inoculated on the 3rd day. After that, the proportion of hCD45+ cells in mouse blood and the body weight were measured once a week. After inoculation, tumor volume was measured once a week, and the proportion of hCD45+ cells in mouse blood was measured when the average tumor volume reached about 40-80 mm^3. Mice were grouped randomly based on tumor volume and the proportion of hCD45+ cells in mouse blood, and the administration was started immediately. The date began the administration was considered day 0. […] After the tumor growth, the body weight and tumor volume were measured 3 times a week, and the relative count of hCD45+ cells in mouse blood was monitored by flow cytometry 3 times a week. When the tumor volume reached the end point, blood was collected and the same indexed were detected, and the experiment was ended. […] Measurement of tumor volume: after inoculation and before grouping, when tumors were visible, the tumor volume of experimental animals was measured once a week. After inoculation and grouping, the tumor volume of animals in the experiment was measured twice a week. The tumor volume was measured by a bidirectional measurement method. […]

| effect on the binding between SEMG2 and CD27 [1] | blocking of binding between SEMG2 and CD27 with increasing antibody concentration [1] | Molecule | growth of tumor in mice [2] |
| --- | --- | --- | --- |
| significantly reduced the binding | gradually decreased | MM02: mouse monoclonal antibody against SEMG2(497-509), mIgG2b kappa, VH SEQ ID NO:35, VL SEQ ID NO:42 (antibody, V domains shown, UNSURE (1)..(115) VH; UNSURE (1)..(109) VL) VH: QIQLVQSGPEVKKPGETVRISCKASGYTLTTAGIQWVQKMPGKGLKWIGWINTHSGVPEYAEDFKGRFAFFLETSASTAYLQISNLKNEDTATYFCARLGLLGYWGQGTTLTVSS VL: DILLTQSPAILSVSPGERVSFSCRASQSIGTTIHWYQQRTNGSPRLLIKYASESISGIPSRFSGSGSGTDFTLSINSVESEDIADYYCQQSNSWPWTFGGGTKLEIKRA | – |
| significantly reduced the binding | gradually decreased | MM05: mouse monoclonal antibody against SEMG2(497-509), mIgG1 kappa, VH SEQ ID NO:36, VL SEQ ID NO:43 (antibody, V domains shown, UNSURE (1)..(120) VH; UNSURE (1)..(115) VL) VH: QVQLQQPGAELVRPGASVKLSCEASGYTFTSYWMNWVKQRPGQGLEWIGMIDPSDSETHYNQMFKDKATLTVDKSSSTAYMQLSSLTSEDSAVYYCARYLGGKEGSFDYWGQGTTLTVSS VL: DIVMSQSPSSLAVSAGEKVTMSCKSSQSLLNSRTRKNYLAWYQQKPGQSPKLLIYWASTRESGVPDRFTGSGSGTDFTLTISSVQAEDLAVYYCKQSYSLPWTFGGGTKLEIKRA | significantly inhibited the growth of tumor |
